Where a chain is given by its changes, count along the chain named. Read-outs that look alike come from different tables or passages of the source. One block for each binder: values may come before it.
Legend:
[1] = molecular target: T1, human VISTA expressed on cells (human, UniProt Q9H7M9 33-311); assay: flow cytometry, FITC anti-Fc detection; HEK293 VISTA O/E against HEK293
T1 construct: also called HEK293 VISTA O/E; HEK293T or HEK293-6E cells overexpressing human VISTA
Procedure: (§1) The cells were washed thrice with FACS buffer (PBS with 5 mM EDTA and 0.5% BSA) and resuspended in FITC-conjugated anti-FC antibody (Invitrogen, USA) for 40 min at 2-8° C. Cells were washed again and resuspended in 200 μL of FACS flow buffer (PBS with 5 mM EDTA) for flow cytometric analysis using MACSQuant 10 (Miltenyi Biotec, Germany). After acquisition, all raw data were analyzed using Flowlogic software. Cells were gated using forward and side scatter profile and Median of Fluorescence Intensity (MFI) value was determined for native and overexpressing cell populations.

[2] = molecular target: T1, human VISTA expressed on cells; assay: flow cytometry, FITC anti-Fc detection; HEK293 cells overexpressing human VISTA against HEK293 cells without VISTA
Procedure: as §1

[3] = molecular target: T2, recombinant mouse VISTA (His-tagged) (mouse, UniProt Q9D659 33-191); assay: ELISA, target protein coated, absorbance 450 nm
T2 construct: also called murine VISTA; mVISTA
T2 sequence (looked up): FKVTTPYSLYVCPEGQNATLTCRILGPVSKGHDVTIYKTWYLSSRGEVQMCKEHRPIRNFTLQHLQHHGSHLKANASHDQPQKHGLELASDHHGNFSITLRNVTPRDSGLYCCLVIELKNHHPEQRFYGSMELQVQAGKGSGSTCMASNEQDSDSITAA

[4] = molecular target: T3, recombinant human VISTA (His-tagged) (human, UniProt Q9H7M9 33-194); assay: ELISA, target protein coated, absorbance 450 nm
T3 construct: bought soluble protein (Sino Biological); also called hVISTA; human VISTA polypeptide

[5] = molecular target: T4, human PD-L1 (human, UniProt Q9NZQ7 19-239); assay: ELISA, target protein coated, absorbance 450 nm
T4 construct: captured through a His tag in the BLI experiments; also called hPD-L1; B7H1/PDL-1

[6] = molecular target: T2, recombinant mouse VISTA (His-tagged); assay: ELISA, target protein coated, absorbance 450 nm; remark: listed apart in the source
[7] = molecular target: T3, recombinant human VISTA (His-tagged); assay: ELISA, target protein coated, absorbance 450 nm; remark: listed apart in the source
[8] = molecular target: T2, recombinant mouse VISTA (His-tagged); assay: BLI (Octet), 1:1 global fit, mouse VISTA captured
Procedure: All measurements were performed at 25° C. with agitation at 1000 rpm. […] Sensograms were referenced for buffer effects and then fitted using the Octet QK384 user software (Pall ForteBio, USA).

[9] = molecular target: T3, recombinant human VISTA (His-tagged); assay: ELISA, plate coated with human VISTA; unit nM from the legend paragraph 697
[10] = molecular target: T2, recombinant mouse VISTA (His-tagged); assay: ELISA, plate coated with mouse VISTA; unit nM from the legend paragraph 699
[11] = molecular target: T3, recombinant human VISTA (His-tagged); assay: BLI (Octet), 1:1 global fit, human VISTA captured
Procedure: (§2) Finally, the biosensors were incubated for 120 sec in PBS pH 7.2 to obtain the dissociation curves. Kinetic and affinity constants were calculated by global fitting of the association and dissociation data to a 1:1 binding model.

[12] = molecular target: T3, recombinant human VISTA (His-tagged); assay: ELISA, plate coated with human VISTA; unit nM from the legend paragraph 699
[13] = molecular target: T2, recombinant mouse VISTA (His-tagged); assay: BLI (Octet), 1:1 global fit, His-tagged mouse VISTA captured
[14] = molecular target: T4, human PD-L1; assay: BLI (Octet), His-tagged human PD-L1 on anti-Penta-HIS biosensor, antibody 500-15.6 nM
Procedure: as §2

[15] = molecular target: T2, recombinant mouse VISTA (His-tagged); assay: ELISA, plate coated with mouse VISTA; unit nM from the legend paragraph 698
[16] = molecular target: T3, recombinant human VISTA (His-tagged); assay: BLI (Octet), 1:1 global fit, His-tagged human VISTA captured
[17] = molecular target: T2, recombinant mouse VISTA (His-tagged); assay: BLI (Octet), 1:1 global fit, His-tagged mouse VISTA captured; remark: listed apart in the source
[18] = molecular target: T3, recombinant human VISTA (His-tagged); assay: ELISA, plate coated with human VISTA; unit nM from the legend paragraph 698
[19] = molecular target: T2, recombinant mouse VISTA (His-tagged); assay: ELISA, plate coated with mouse VISTA; unit nM from the legend paragraph 697
[20] = molecular target: T3, recombinant human VISTA (His-tagged); assay: competition ELISA: VSIG-3 coated, His-tagged VISTA added with the antibody, anti-His-HRP; blocked ligand VSIG-3
Procedure: Briefly, 96-well plates (Nunc, Denmark) were coated with 1 μg/ml of untagged or Fc-tagged VSIG-3 (R&D Systems, USA) in 1×PBS for 16 h at 4° C. […] Plates were subsequently washed three times with TBS-T and incubated with an HRP-conjugated anti-his secondary antibody for 1 h at room temperature. After washing, plates were developed with colorimetric detection substrate Turbo-TMB (Pierce, USA).

T4 sequence (Q9NZQ7 19-239 limits assumed): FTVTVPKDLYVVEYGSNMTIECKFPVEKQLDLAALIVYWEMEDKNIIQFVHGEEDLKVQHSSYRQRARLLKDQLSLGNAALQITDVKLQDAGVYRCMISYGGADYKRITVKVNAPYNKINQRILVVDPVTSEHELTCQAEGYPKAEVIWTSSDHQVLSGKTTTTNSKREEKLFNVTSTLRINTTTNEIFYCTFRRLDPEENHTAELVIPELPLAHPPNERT

binding result [1]: binds
B1: anti-VISTA clone 4M2-D9 IgG1 (antibody, V domains shown)
VH: EVQLQESGPGLVKPSQSLSLTCTVTGYSITSDYAWNWIRQFPGNRLEWMGFISYSGFTTYSPSLESRISITRDTSKNQFFLQLISVTTEDTATYYCARNHYGGSYWYFDVWGAGTSVTVSS
VL: DIVMTQSPGSLAVSLGQRATISCRASESVEYYGTSLMQWYLQKPGQPPKLLIYAASNVESGVPDRFRGSGSGTDFSLNIHPVEEDDIAMYFCQQSRKVPWTFGGGTKLEIKR

binding result [2]: binds
B2: anti-VISTA clone 4M2-D5 IgG1 (antibody, V domains shown)
VH: QVQLQQSGAELARPGASVRMSCKASGYTFTSYTMNWVKQRPGQGLEWIGFINPDSDYTTYDQKFKDKATLTADSSSSTAYMQLSSLTYDDSAVYYCTRHSYGNYGDYWGQGTTLTVSS
VL: DIVLTQSPKFLLVSAGDRVTITCKASQSVTNDVAWYQQKPGQSPKLLIYYASSRYTGVPDRFTGSGFGTDFTFTINTVQAEDLAVYFCQQDYSSPYTFGGGTKLEIKR

binding result [1]: binds
B3: anti-VISTA clone 4M2-A8 IgG1 (antibody, V domains shown)
VH: QVQLQQSGADLARPGASVKMSCKASGYTFIDYTVHWVKQRPGQGLEWIGFINPSNDYTSYNQKFKDKASLTADTSSTTAYMQLSSLTSDDSAVYYCARHSYGNYGDYWGQGTTLTVSS
VL: B2 VL with L4M, S7A, D32G, S53N, N76S

binding result [3]: binds
binding result [4]: binds
binding result [5]: binds
B4: anti-VISTA clone 13D5-1 IgG1 (antibody, V domains shown)
VH: QVQLQQSGAELVRPGTSVKISCKASGYTFTNYWLGWVKQRPGHGLEWIGDIYPGGGYTNYNEKFKGKATLTADTSSSTAYMQLSSLTSEDSAVYFCVRSGYYYGSSWYFDVWGAGTTVTVSS
VL: DVLMTQTPLSLPVSLGDQASISCRSSQSIVHSSGNTYLEWYLQKPDQSPKLLIYKVSNRFSGVPDRFSGSGSGTDFTLKISRVEAEDLGVYYCFQGSHVPPTFGGGTKLEIKR

binding result [6]: binds
binding result [7]: binds
B5: anti-VISTA clone 13D5-13 IgG1 (antibody, V domains shown)
VH: B4 VH with T74I, V93D, S99G
VL: B4 VL with I29T, S33I, D46G, G71E

binding result [1]: binds
B6: anti-VISTA clone 1M2-D2 IgG1 (antibody, V domains shown)
VH: EVKVEESGGGLVQPGGSMKLSCAASGFTFSDAWMDWVHQSPEKGLEWVAEIRSKANNHATYYVESVEGRFTISRDDSKSSVFLQVNSLRPEDTGIYYCTRRDGYYFAYWGQGTLVTVSA
VL: DIVLTQSPAIMSASLGEEITLTCSASSSVRDMHWYQQKSGTSPKVLIYNTFNLASGVPSRFSGSGSGTFYSLTISSVEAGDAAAYYCHQWSSYPTFGGGTKLEIKR

binding result [1]: binds
B7: anti-VISTA clone 2M1-B12 IgG1 (antibody)
heavy: not shown
light: DIQMMQSPASLSASVGETVAITCGASENIYGALNWYQRKQGKSPQLLIYGATNLADGMSSRFSGSGSGRQYSLKISSLHPDDVATYYCQNVLSTPYTFGGGTKLEIKRTVAAPSVFIFPPSDEQLKSGTASVVCLLNNFYPREAKVQWKVDNALQSGNSQESVTEQDSKDSTYSLSSTLTLSKADYEKHKVYACEVTHQGLSSPVTKSFNRGEC

binding result [1]: binds
B8: anti-VISTA clone 2M1-D2 IgG1 (antibody)
heavy: not shown
light: B7 light with Q3V, M5T

Kd [8]: 58.5 nM
koff [8]: 0.0162 s⁻¹
kon [8]: 277000 M⁻¹ s⁻¹
EC50 [9]: 0.0024 nM
EC50 [10]: 2.44 nM
Kd [11]: < 0.001 nM
koff [11]: < 1e-07 s⁻¹
kon [11]: 391000 M⁻¹ s⁻¹
EC50 [12]: 0.065 nM
Kd [13]: 66.7 nM
koff [13]: 0.022 s⁻¹
kon [13]: 330000 M⁻¹ s⁻¹
binding result [14]: no binding (tested: 500 nM)
EC50 [15]: 1.6 nM
Kd [16]: < 0.001 nM
koff [16]: < 1e-07 s⁻¹
kon [16]: 343000 M⁻¹ s⁻¹
Kd [17]: 60.7 nM
koff [17]: 0.0147 s⁻¹
kon [17]: 243000 M⁻¹ s⁻¹
EC50 [18]: 0.042 nM
EC50 [19]: 3.1 nM
B9: anti-VISTA clone V4-C1 IgG1 (antibody, V domains shown)
VH: QVQLQESGPGLVKPSDTLSLTCTVSGYSITSDYAWNWIRQTPGKGLEWIGYITYSGYISYNPSLRSRVTISRDTSKNQFSLKLSSVTAADTAVYSCARALYYPWYFDVWGTGTTVTVSS
VL: EIVITQSPATLSLSPGERATLSCRASSSVGYIHWYQQKPGQAPRPLIYATSNRATGIPARFSGSGSGTDNTLTISSLEPEDSAVYYCQQWSSYPPITFGGGTKLEVKR

Kd [8]: 2.88 nM
koff [8]: 0.00104 s⁻¹
kon [8]: 361000 M⁻¹ s⁻¹
EC50 [9]: 0.031 nM
EC50 [10]: 0.18 nM
Kd [11]: 0.125 nM
koff [11]: 5.6e-05 s⁻¹
kon [11]: 450000 M⁻¹ s⁻¹
EC50 [12]: 0.107 nM
Kd [13]: 4.26 nM
koff [13]: 0.00067 s⁻¹
kon [13]: 157000 M⁻¹ s⁻¹
binding result [14]: no binding (tested: 500 nM)
EC50 [15]: 0.044 nM
Kd [16]: < 0.001 nM
koff [16]: < 1e-07 s⁻¹
kon [16]: 333000 M⁻¹ s⁻¹
Kd [17]: 3.81 nM
koff [17]: 0.00118 s⁻¹
kon [17]: 311000 M⁻¹ s⁻¹
EC50 [18]: 0.03 nM
EC50 [19]: 0.11 nM
B10: anti-VISTA clone V4-C9 IgG1 (antibody, V domains shown)
VH: B9 VH with I58V
VL: B9 VL with I4L

binding result [1]: binds
binding result [20]: binds
B11: anti-VISTA clone 5M1-A11 IgG1 (antibody, V domains shown)
VH: QVTLKVSGPGILQPSQTLSLTCSFSGFSLSTSGMGVSWIRQPSGKGLEWLAHIYWDDDKRYNPSLKSRLTISKDSSSNQVFLKITSVDTADTATYYCARRLDGYNDPYYFDYWGQGTTLTVSS
VL: DVVMTQTPALMSASPGEKVTMTCSASSSVSYMYWYQQKPRSSPKPWIYLTSNLASGVPARFSGSGSGTSYSLTISSMEAEDAATYYCQQWNSNPYTFGGGTKLEIKR

binding result [1]: binds
B12: anti-VISTA clone 4M2-C9 IgG1 (antibody, V domains shown)
VH: B11 VH with V6E, S7C
VL: DIVMTQSPSSLSASLGDTVTITCHASQNVNVWLSWYQQKPGNIPKLLIYKASNLHAGVPSRFSGSGSGTGFTLTISSLQPEDIATYYCQQGQSYPLTFGGGTKLEIKR

Source: patent publication US20250313631A1 (HUMMINGBIRD BIOSCIENCE PTE, published 2025)
